We go through one molecule from patent US20120010151A1.

Where no end group is shown, it is not given here. The star is where a group is joined. Boc = CC(C)(C)OC(=O)*

The target of this assay is Wnt-5a receptors (on A2058 melanoma cells). In words: cell-based or functional assay.

In the case of Boc-MDGCEL [Box5 (Wnt-5a-derived N-butyloxycarbonyl hexapeptide Met-Asp-Gly-Cys-Glu-Leu)], the inhibition of the Wnt-5a-induced Ca2+ signal (fura-2, A2058 melanoma cells, 100 uM Box5, 0.1 ug/ml Wnt-5a) was over 70%.
